Assay [1] has as its target T1, human PD-1 on cells (HEK-PD-1 reporter cells; activated PBMC) (human, UniProt Q15116 25-288). The experiment in a line: cell-based or functional assay.
Assay [2] addresses T2, human IL-2 receptor (IL-2Rα, IL-2Rβ, IL-2Rγ) (human, UniProt P01589 22-272; P14784 27-551; P31785 23-369).
T2 sequence (looked up) 1: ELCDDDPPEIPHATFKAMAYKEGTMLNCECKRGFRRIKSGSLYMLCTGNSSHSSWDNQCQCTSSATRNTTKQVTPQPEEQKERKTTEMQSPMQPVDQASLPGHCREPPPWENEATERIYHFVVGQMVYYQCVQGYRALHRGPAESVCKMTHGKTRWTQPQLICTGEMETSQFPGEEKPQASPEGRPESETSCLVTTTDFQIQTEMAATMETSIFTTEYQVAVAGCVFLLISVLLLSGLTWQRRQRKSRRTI
T2 sequence (looked up) 2: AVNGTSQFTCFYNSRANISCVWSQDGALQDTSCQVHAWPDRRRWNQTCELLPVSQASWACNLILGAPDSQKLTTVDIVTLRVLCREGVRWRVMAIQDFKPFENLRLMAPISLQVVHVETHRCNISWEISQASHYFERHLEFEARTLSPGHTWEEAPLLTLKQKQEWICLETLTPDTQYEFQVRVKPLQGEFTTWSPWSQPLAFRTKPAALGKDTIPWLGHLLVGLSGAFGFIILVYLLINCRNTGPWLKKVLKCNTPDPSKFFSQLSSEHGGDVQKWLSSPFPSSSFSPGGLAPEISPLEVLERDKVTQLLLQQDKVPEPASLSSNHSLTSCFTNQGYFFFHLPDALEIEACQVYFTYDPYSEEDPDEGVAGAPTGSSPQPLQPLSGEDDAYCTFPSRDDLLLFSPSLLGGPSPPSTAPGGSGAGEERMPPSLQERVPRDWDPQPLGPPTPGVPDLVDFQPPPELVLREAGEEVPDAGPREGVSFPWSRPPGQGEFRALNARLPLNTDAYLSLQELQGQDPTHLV
T2 sequence (looked up) 3: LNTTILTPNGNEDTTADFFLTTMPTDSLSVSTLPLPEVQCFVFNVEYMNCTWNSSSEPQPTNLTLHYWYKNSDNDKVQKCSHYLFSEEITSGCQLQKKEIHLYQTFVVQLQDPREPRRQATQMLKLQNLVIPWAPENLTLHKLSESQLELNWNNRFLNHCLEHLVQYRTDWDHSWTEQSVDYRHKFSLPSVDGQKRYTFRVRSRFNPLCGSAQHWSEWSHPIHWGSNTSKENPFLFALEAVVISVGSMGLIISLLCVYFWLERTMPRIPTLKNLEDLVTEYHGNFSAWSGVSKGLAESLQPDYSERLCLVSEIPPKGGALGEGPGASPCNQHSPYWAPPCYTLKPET
As to the kind of experiment: cell-based or functional assay.

For assay [3], the target named is T2, human IL-2 receptor (IL-2Rα, IL-2Rβ, …). As to the kind of experiment: FACS on HEK-Blue IL-2 cells (IL-2 receptor, no PD-1).
Assay [4] concerns the target T1, human PD-1 on cells (HEK-PD-1 reporter …). As to the kind of experiment: cell-based or functional assay. The source holds these as a separate data set.
Assay [5] has as its target human IL-12 receptor complex (IL-12Rβ1 and IL-12Rβ2) (human, UniProt P42701 24-662; Q99665 24-862). The experiment in a line: cell-based or functional assay.
For assay [6], the target named is T2, human IL-2 receptor (IL-2Rα, IL-2Rβ, …). As to the kind of experiment: cell-based or functional assay. This is another data set of the same source.
The target in assay [7] is T3, human PD-1 (human, UniProt Q15116 25-167, limits assumed).
T3 construct: also called hPD-1
As to the kind of experiment: rounded restatement of Tables 14 and 15.

Assay [8] deals with T4, mouse PD-1 (mouse, UniProt Q02242 25-167, limits assumed).
T4 construct: also called mPD-1
T4 sequence (looked up): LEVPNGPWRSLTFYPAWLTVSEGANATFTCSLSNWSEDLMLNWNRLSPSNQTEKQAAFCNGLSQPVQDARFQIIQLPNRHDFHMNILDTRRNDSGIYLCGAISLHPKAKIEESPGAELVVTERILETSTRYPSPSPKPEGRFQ
The experiment in a line: rounded restatement of Tables 14 and 15.

Assay [9] has as its target T4, mouse PD-1. As to the kind of experiment: same value as Table 14 (measured in PD-L1-Fc format).

T1 sequence (Q15116 25-288): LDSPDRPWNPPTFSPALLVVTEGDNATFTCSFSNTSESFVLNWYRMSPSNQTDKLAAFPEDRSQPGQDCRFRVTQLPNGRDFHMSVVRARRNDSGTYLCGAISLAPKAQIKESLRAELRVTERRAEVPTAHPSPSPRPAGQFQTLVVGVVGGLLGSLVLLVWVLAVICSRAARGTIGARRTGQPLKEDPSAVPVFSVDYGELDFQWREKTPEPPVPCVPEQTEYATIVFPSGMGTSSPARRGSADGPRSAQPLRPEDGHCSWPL
Chain of human IL-12 receptor complex (IL-12Rβ1 and IL-12Rβ2) (Q99665 24-862, chain 2 of 2, other chains not shown): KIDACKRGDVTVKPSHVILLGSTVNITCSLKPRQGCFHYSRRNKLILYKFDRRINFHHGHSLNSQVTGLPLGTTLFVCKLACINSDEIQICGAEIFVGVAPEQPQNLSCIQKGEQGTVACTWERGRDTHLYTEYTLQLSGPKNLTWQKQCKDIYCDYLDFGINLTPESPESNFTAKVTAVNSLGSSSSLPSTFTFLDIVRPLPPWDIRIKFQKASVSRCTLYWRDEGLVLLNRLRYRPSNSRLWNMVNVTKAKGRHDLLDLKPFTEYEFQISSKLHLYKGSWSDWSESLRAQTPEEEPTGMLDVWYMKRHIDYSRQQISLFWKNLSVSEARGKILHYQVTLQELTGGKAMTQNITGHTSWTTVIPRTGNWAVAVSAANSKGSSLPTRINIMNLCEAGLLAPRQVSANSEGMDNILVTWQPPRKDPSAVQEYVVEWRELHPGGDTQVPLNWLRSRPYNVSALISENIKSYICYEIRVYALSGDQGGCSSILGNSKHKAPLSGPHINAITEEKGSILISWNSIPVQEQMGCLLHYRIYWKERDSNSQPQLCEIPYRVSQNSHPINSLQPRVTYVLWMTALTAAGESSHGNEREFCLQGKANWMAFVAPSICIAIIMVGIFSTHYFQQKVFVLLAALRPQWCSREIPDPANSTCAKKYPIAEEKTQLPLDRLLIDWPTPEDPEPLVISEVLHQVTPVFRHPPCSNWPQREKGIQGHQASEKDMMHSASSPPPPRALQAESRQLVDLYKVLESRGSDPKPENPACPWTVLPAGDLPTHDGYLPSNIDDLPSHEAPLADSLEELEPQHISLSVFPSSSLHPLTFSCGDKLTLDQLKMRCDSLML
T3 sequence (Q15116 25-167 limits assumed): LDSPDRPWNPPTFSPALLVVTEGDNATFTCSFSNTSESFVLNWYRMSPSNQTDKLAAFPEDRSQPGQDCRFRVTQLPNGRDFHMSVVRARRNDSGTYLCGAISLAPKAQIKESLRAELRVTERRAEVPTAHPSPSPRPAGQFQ

B1: IL-2(R38D/K43E/E61R)/PD-L2-Fc immunomodulatory molecule (Fc fusion)
chain 1: LFTVTVPKELYIIEHGSNVTLECNFDTGSHVNLGAITASLQKVENDTSPHRERATLLEEQLPLGKASFHIPQVQVRDEGQYQCIIIYGVAWDYKYLTLKVKASYRKINTHILKVPETDEVELTCQATGYPLAEVSWPNVSVPANTSHSRTPEGLYQVTSVLRLKPPPGRNFSCVFWNTHVRELTLASIDLQSQMEPRTHPTGGGGSAPTSSSTKKTQLQLEHLLLDLQMILNGINNYKNPKLTDMLTFEFYMPKKATELKHLQCLERELKPLEEVLNLAQSKNFHLRPRDLISNINVIVLELKGSETTFMCEYADETATIVEFLNRWITFCQSIISTLTDKTHTCPPCPAPEDEGGPSVFLFPPKPKDTLMISRTPEVTCVVVDVSHEDPEVKFNWYVDGVEVHNAKTKPREEQYNSTYRVVSVLTVLHQDWLNGKEYKCKVSNKALPAPIEKTISKAKGQPREPQVYVYPPSREEMTKNQVSLTCLVKGFYPSDIAVEWESNGQPENNYKTTPPVLDEDGSFALVSKLTVDKSRWQQGNVFSCSVMHEALHNHYTQKSLSLSPGK
chain 2: LFTVTVPKELYIIEHGSNVTLECNFDTGSHVNLGAITASLQKVENDTSPHRERATLLEEQLPLGKASFHIPQVQVRDEGQYQCIIIYGVAWDYKYLTLKVKASYRKINTHILKVPETDEVELTCQATGYPLAEVSWPNVSVPANTSHSRTPEGLYQVTSVLRLKPPPGRNFSCVFWNTHVRELTLASIDLQSQMEPRTHPTGGGGSDKTHTCPPCPAPEKKGGPSVFLFPPKPKDTLMISRTPEVTCVVVDVSHEDPEVKFNWYVDGVEVHNAKTKPREEQYNSTYRVVSVLTVLHQDWLNGKEYKCKVSNKALPAPIEKTISKAKGQPREPQVYVLPPSREEMTKNQVSLLCLVKGFYPSDIAVEWESNGQPENRYMTWPPVLDSDGSFFLYSKLTVDKSRWQQGNVFSCSVMHEALHNHYTQKSLSLSPGK
notes: also called ligand-IL-2 mutant-PD-L2-Fc; IW-#11
Regarding B1, the “Percent IL-2 signal transduction (HEK-PD-1-IL-2 reporter assay)” value in [1] was found to be 43.5%. The “Percent IL-2 signal transduction (HEK-IL-2 reporter assay)” value in [2] was 2.4%. The binding result in assay [3] was “no binding”.

B2: IL-12(E59A/F60A)/PD-L1(mut2)-Fc (IL-12 at hinge) (Fc fusion)
chain 1: FTVTVPKDLYVVEYGSNMTIECKFPVEKQLDLAALQVYWMMEDKNIIQFVHGEEDLKVQHSSYRQRARLLKDQLSLGNAALQITDVKLQDAGVYTCLIAYKGADYKRITVKVNAPYNKINQRILVVDPVTSEHELTCQAEGYPKAEVIWTSSDHQVLSGKTTTTNSKREEKLFNVTSTLRINTTTNEIFYCTFRRLDPEENHTAELVIPELPLAHPPNERGGGGSGGGIWELKKDVYVVELDWYPDAPGEMVVLTCDTPEEDGITWTLDQSSEVLGSGKTLTIQVKAAGDAGQYTCHKGGEVLSHSLLLLHKKEDGIWSTDILKDQKEPKNKTFLRCEAKNYSGRFTCWWLTTISTDLTFSVKSSRGSSDPQGVTCGAATLSAERVRGDNKEYEYSVECQEDSACPAAEESLPIEVMVDAVHKLKYENYTSSFFIRDIIKPDPPKNLQLKPLKNSRQVEVSWEYPDTWSTPHSYFSLTFCVQVQGKSKREKKDRVFTDKTSATVICRKNASISVRAQDRYYSSSWSEWASVPCSGGGGSGGGSGGGGSRNLPVATPDPGMFPCLHHSQNLLRAVSNMLQKARQTLEFYPCTSEEIDHEDITKDKTSTVEACLPLELTKNESCLNSRETSFITNGSCLASRKTSFMMALCLSSIYEDLKMYQVEFKTMNAKLLMDPKRQIFLDQNMLAVIDELMQALNFNSETVPQKSSLEEPDFYKTKIKLCILLHAFRIRAVTIDRVMSYLNASGGGGSGGGDKTHTCPPCPAPEDEGGPSVFLFPPKPKDTLMISRTPEVTCVVVDVSHEDPEVKFNWYVDGVEVHNAKTKPREEQYNSTYRVVSVLTVLHQDWLNGKEYKCKVSNKALPAPIEKTISKAKGQPREPQVYVYPPSREEMTKNQVSLTCLVKGFYPSDIAVEWESNGQPENNYKTTPPVLDEDGSFALVSKLTVDKSRWQQGNVFSCSVMHEALHNHYTQKSLSLSPGK
chain 2: FTVTVPKDLYVVEYGSNMTIECKFPVEKQLDLAALQVYWMMEDKNIIQFVHGEEDLKVQHSSYRQRARLLKDQLSLGNAALQITDVKLQDAGVYTCLIAYKGADYKRITVKVNAPYNKINQRILVVDPVTSEHELTCQAEGYPKAEVIWTSSDHQVLSGKTTTTNSKREEKLFNVTSTLRINTTTNEIFYCTFRRLDPEENHTAELVIPELPLAHPPNERGGGGSGGGDKTHTCPPCPAPEKKGGPSVFLFPPKPKDTLMISRTPEVTCVVVDVSHEDPEVKFNWYVDGVEVHNAKTKPREEQYNSTYRVVSVLTVLHQDWLNGKEYKCKVSNKALPAPIEKTISKAKGQPREPQVYVLPPSREEMTKNQVSLLCLVKGFYPSDIAVEWESNGQPENRYMTWPPVLDSDGSFFLYSKLTVDKSRWQQGNVFSCSVMHEALHNHYTQKSLSLSPGK
notes: also called IL-12(E59A/F60A)/PD-L1(I54Q/E58M/R113T/M115L/S117A/G119K)-Fc
For the molecule B2, in assay [4], the “IL-2 signal transduction, HEK-IL-2-PD-1” value was below 0.1%. Also, the “IL-12 signal transduction, HEK-IL-12-PD-1” value in assay [4] came out at 24%. For the same molecule, in assay [5], the “IL-12 signal transduction, HEK-IL-12” value was below 0.2%. For the same molecule, in [6], the “IL-2 signal transduction, HEK-IL-2” value was below 0.1%. Further, the values for the Kd in [7], in [8] and in [9] were around 100 nM, around 100 nM and 120 nM, respectively.

Values taken from patent publication US20240392004A1 (IMMUNOWAKE, published 2024).
